Data taken from publication doi:10.1101/2022.04.08.487678 (bioRxiv, 2022).

Target: CcdB, biotinylated (E. coli (F-plasmid), UniProt P62554 1-101)
Test: flow cytometry on cells

CcdB, biotinylated, sequence (P62554 whole entry): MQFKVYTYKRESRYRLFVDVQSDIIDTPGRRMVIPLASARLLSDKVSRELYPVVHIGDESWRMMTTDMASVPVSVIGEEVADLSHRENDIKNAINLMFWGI

B1: CcdA wild type, displayed on the yeast surface (natural protein)
chain: MKQRITVTVDSDSYQLLKAYDVNISGLVSTTMQNEARRLRAERWKAENQEGMAEVARFIEMNGSFADENRDW
B1 showed a Kd of 0.25 ± 0.05 nM.
